In this test the target is T1, CD28 expressed on human CD4+ and CD8+ T cells (human, UniProt P10747 19-220).
T1 construct: whole, on cells; also called T-cell-specific surface glycoprotein CD28
Put plainly: flow cytometry after incubation of PBMC with the constructs. Here is the method: Binding of the variants to normal human T cells was determined after incubation of PBMC with the respective constructs and subsequent analysis by flow cytometry
(In general: In flow cytometry, cells or beads pass a laser one at a time.)

B1: bispecific endoglinxCD28 antibody in the IgGsc format, BiCo variant Hc-L (bispecific antibody)
heavy: QVQLVQSGAEVKKPGASVKVSCKASGYTFTSYWMHWVRQAPGQGLEWIGNIYPGSGSTFYDEKFKGRATLTVDTSISTAYMELSRLRSDDTAVYYCTRRNYVTGFDYWGQGTTVTVSSASTKGPSVFPLAPSSKSTSGGTAALGCLVKDYFPEPVTVSWNSGALTSGVHTFPAVLQSSGLYSLSSVVTVPSSSLGTQTYICNVNHKPSNTKVDKKVEPKSCDKTHTCPPCPAPPVAGPSVFLFPPKPKDTLMISRTPEVTCVVVGVSHEDPEVKFNWYVDGVEVHNAKTKPREEQYNSTYRVVSVLTVLHQDWLNGKEYKCKVSNKQLPSPIEKTISKAKGQPREPQVYTLPPSRDELTKNQVSLTCLVKGFYPSDIAVEWESNGQPENNYKTTPPVLDSDGSFFLYSKLTVDKSRWQQGNVFSCSVMHEALHNHYTQKSLSLSPGKASQVQLVESGGGVVQPGRSLRLSCAASGFSLSDYGVHWVRQAPGKGLEWLGVIWAGGGTNYNSALMSRKTISKDNSKNTVYLQMNSLRAEDTAVYYCARDKGYSYYYSMDYWGQGTTVTVSSGGGGSGGGGSGGGGSDIQMTQSPSTLSASVGDRVTIICRASESVEYYVTSLMQWYQQKPGKAPKLLIFAASNVESGVPSRFSGSGSGTEFTLTISSLQPDDFATYYCQQSRKVPYTFGQGTKLEIKR
light: DIQLTQSPSFLSASVGDRVTITCKSSQSVLYSSNQKNYLAWYQQKPGKAPKLLIYWASTRESGVPSRFSGSGSGTEFTLTISSLQPEDFATYYCHQYLSSYTFGQGTKLEIKRTVAAPSVFIFPPSDEQLKSGTASVVCLLNNFYPREAKVQWKVDNALQSGNSQESVTEQDSKDSTYSLSSTLTLSKADYEKHKVYACEVTHQGLSSPVTKSFNRGEC
notes: Humanized endoglin IgG (K-ro22-2 / K-ro22-6), FcKO, with the CD28 scFv (9.3-8, Vh-Vl) fused to the C-terminus of the heavy chain without the long linker
On to B1, for which the binding result is “binds”.

B2: bispecific endoglinxCD28 antibody in the IgGsc format, BiCo variant Lc-L (bispecific antibody)
heavy: QVQLVQSGAEVKKPGASVKVSCKASGYTFTSYWMHWVRQAPGQGLEWIGNIYPGSGSTFYDEKFKGRATLTVDTSISTAYMELSRLRSDDTAVYYCTRRNYVTGFDYWGQGTTVTVSSASTKGPSVFPLAPSSKSTSGGTAALGCLVKDYFPEPVTVSWNSGALTSGVHTFPAVLQSSGLYSLSSVVTVPSSSLGTQTYICNVNHKPSNTKVDKKVEPKSCDKTHTCPPCPAPPVAGPSVFLFPPKPKDTLMISRTPEVTCVVVGVSHEDPEVKFNWYVDGVEVHNAKTKPREEQYNSTYRVVSVLTVLHQDWLNGKEYKCKVSNKQLPSPIEKTISKAKGQPREPQVYTLPPSRDELTKNQVSLTCLVKGFYPSDIAVEWESNGQPENNYKTTPPVLDSDGSFFLYSKLTVDKSRWQQGNVFSCSVMHEALHNHYTQKSLSLSPGK
light: DIQLTQSPSFLSASVGDRVTITCKSSQSVLYSSNQKNYLAWYQQKPGKAPKLLIYWASTRESGVPSRFSGSGSGTEFTLTISSLQPEDFATYYCHQYLSSYTFGQGTKLEIKRTVAAPSVFIFPPSDEQLKSGTASVVCLLNNFYPREAKVQWKVDNALQSGNSQESVTEQDSKDSTYSLSSTLTLSKADYEKHKVYACEVTHQGLSSPVTKSFNRGECASQVQLVESGGGVVQPGRSLRLSCAASGFSLSDYGVHWVRQAPGKGLEWLGVIWAGGGTNYNSALMSRKTISKDNSKNTVYLQMNSLRAEDTAVYYCARDKGYSYYYSMDYWGQGTTVTVSSGGGGSGGGGSGGGGSDIQMTQSPSTLSASVGDRVTIICRASESVEYYVTSLMQWYQQKPGKAPKLLIFAASNVESGVPSRFSGSGSGTEFTLTISSLQPDDFATYYCQQSRKVPYTFGQGTKLEIKR
notes: Humanized endoglin IgG, FcKO heavy chain, with the CD28 scFv (9.3-8, Vh-Vl) fused to the C-terminus of the kappa light chain without the long linker
As to B2, the binding result was “binds”.

B3: bispecific endoglinxCD28 antibody in the IgGsc format, BiCo variant Lc+L (bispecific antibody)
heavy: QVQLVQSGAEVKKPGASVKVSCKASGYTFTSYWMHWVRQAPGQGLEWIGNIYPGSGSTFYDEKFKGRATLTVDTSISTAYMELSRLRSDDTAVYYCTRRNYVTGFDYWGQGTTVTVSSASTKGPSVFPLAPSSKSTSGGTAALGCLVKDYFPEPVTVSWNSGALTSGVHTFPAVLQSSGLYSLSSVVTVPSSSLGTQTYICNVNHKPSNTKVDKKVEPKSCDKTHTCPPCPAPPVAGPSVFLFPPKPKDTLMISRTPEVTCVVVGVSHEDPEVKFNWYVDGVEVHNAKTKPREEQYNSTYRVVSVLTVLHQDWLNGKEYKCKVSNKQLPSPIEKTISKAKGQPREPQVYTLPPSRDELTKNQVSLTCLVKGFYPSDIAVEWESNGQPENNYKTTPPVLDSDGSFFLYSKLTVDKSRWQQGNVFSCSVMHEALHNHYTQKSLSLSPGK
light: DIQLTQSPSFLSASVGDRVTITCKSSQSVLYSSNQKNYLAWYQQKPGKAPKLLIYWASTRESGVPSRFSGSGSGTEFTLTISSLQPEDFATYYCHQYLSSYTFGQGTKLEIKRTVAAPSVFIFPPSDEQLKSGTASVVCLLNNFYPREAKVQWKVDNALQSGNSQESVTEQDSKDSTYSLSSTLTLSKADYEKHKVYACEVTHQGLSSPVTKSFNRGECASGGGGSGGGGSGGGGSQVQLVESGGGVVQPGRSLRLSCAASGFSLSDYGVHWVRQAPGKGLEWLGVIWAGGGTNYNSALMSRKTISKDNSKNTVYLQMNSLRAEDTAVYYCARDKGYSYYYSMDYWGQGTTVTVSSGGGGSGGGGSGGGGSDIQMTQSPSTLSASVGDRVTIICRASESVEYYVTSLMQWYQQKPGKAPKLLIFAASNVESGVPSRFSGSGSGTEFTLTISSLQPDDFATYYCQQSRKVPYTFGQGTKLEIKR
notes: Humanized endoglin IgG, FcKO heavy chain, with the CD28 scFv (9.3-8, Vh-Vl) fused to the C-terminus of the kappa light chain through a (GGGGS)3 linker; also called BiCo-1; Bico1
In the case of B3, the binding result was “binds”.

For the origin of these results see patent publication US20230406961A1 (DEUTSCHES KREBSFORSCHUNGSZENTRUM STIFTUNG DES FFENTLICHEN …, published 2023).
